# Results reported in patent publication US20260001928A1 (CORTERIA PHARMACEUTICALS, priority 2022, published 2026).
# *1 amine or outer side, *2 acyl side, *3 side chain or, on linkers, in order; H or OH if unused. Where a SMILES comes first, the peptide text is derived from it. Where no end group is shown, it is not given here. Side-chain parts run from the residue outwards. [ ]: non-standard residue; d: D form. The star is where a group is joined. C20 diacid = O=C(O)CCCCCCCCCCCCCCCCCCC(=O)*; C18 diacid = O=C(O)CCCCCCCCCCCCCCCCC(=O)*; C16 diacid = O=C(O)CCCCCCCCCCCCCCC(=O)*; γGlu = O=C(O)[C@H](CCC(=O)[*:2])N[*:1]; NMeI = CC[C@H](C)[C@H](NC)C(=O)O; Pentanoyl = CCCCC(=O)*; AEEA = NCCOCCOCC(=O)O; Aib = CC(C)(N)C(=O)O
# How the values were obtained:
# human LAD2 cells = format: cell-based
# Method: LAD2 cells (20000 cells/well, 96-well plates and 10,000 cells/well in 384-well plates) were incubated with compounds for 30 min. The R-hexosaminidase released into the supernatants and in cell lysates was quantified using the fluorogenic substrate 4-methylumbelliferyl-N-acetyl-b-D-glucosaminide.
# On the day of the assay, the lyophilized peptides were dissolved in DMSO and/or PBS 1× pH 7.4, to obtain stock solutions. The stock solutions were used to prepare working serial dilutions to have final concentrations in assay ranging from 50, 100 or 300 to 0.1 or 0.001 μM. Each peptide was tested in biological duplicates. When compounds were dissolved in DMSO, the final solvent concentration in assay was 0.5% (v/v).
# The percentage of degranulation, expressed as % of R-hexosaminidase release, was calculated by dividing the fluorescence signal of the supernatant by the sum of the signals from the supernatant and cell pellet (lysed with Triton X-100, final 1%) and multiplying by 100.
# Dose-response curves were generated by plotting the % of R-hexosaminidase release versus total release of cells treated with triton (y-axis) against the concentrations of peptides tested (x-axis). The Mast Cell Degranulation (MCD) EC50 values and standard errors were calculated using XLfit 5.5.0.5 based on the following equation:
# 4 Parameter Sigmoidal Model: f=(A+((B−A)/(1+((C/x)^D))))
# where A=Emin, B=Emax, C=EC50 and D=slope
# [1] = biological target: T1, CRF1R (corticotropin-releasing factor receptor 1), on the CRF1R-overexpression CHO-K1 cell line clone 2 (UniProt P34998 24-415, limits assumed); assay: cell-based or functional assay
# T1 sequence (looked up): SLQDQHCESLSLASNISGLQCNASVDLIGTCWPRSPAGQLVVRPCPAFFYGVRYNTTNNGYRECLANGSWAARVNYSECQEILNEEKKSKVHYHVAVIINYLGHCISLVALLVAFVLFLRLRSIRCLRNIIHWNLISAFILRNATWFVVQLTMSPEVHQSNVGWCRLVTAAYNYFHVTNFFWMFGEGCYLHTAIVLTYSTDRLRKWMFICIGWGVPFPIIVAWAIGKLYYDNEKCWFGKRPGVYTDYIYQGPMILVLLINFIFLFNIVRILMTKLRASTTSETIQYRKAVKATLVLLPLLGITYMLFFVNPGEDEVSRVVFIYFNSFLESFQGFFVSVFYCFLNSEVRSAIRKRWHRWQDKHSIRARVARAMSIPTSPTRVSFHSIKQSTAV
EC50 (human LAD2 cells),"EC50 [nM] (cAMP, CRF1R-overexpression CHO-K1 cells) [1]","Emax (% I) (cAMP, 100% = Sauvagine at 100 nM) [1]",Molecule
88.2 µM,–,–,CCCCC(=O)N[C@H](C(=O)N[C@@H](CC(C)C)C(=O)N[C@@H](CO)C(=O)N[C@@H](CC(C)C)C(=O)N[C@@H](CC(=O)O)C(=O)N[C@@H](C(=O)N1CCC[C@H]1C(=O)N[C@H](C(=O)N[C@@H](CCCCN)C(=O)N[C@@H](CC(C)C)C(=O)N[C@@H](CCCCNC(=O)CC[C@H](NC(=O)CCCCCCCCCCCCCCCCCCC(=O)O)C(=O)O)C(=O)N[C@@H](CCCCN)C(=O)N[C@H](C(=O)N[C@@H](CC(C)C)C(=O)N[C@@H](CC(C)C)C(=O)N[C@@H](CCC(=O)O)C(=O)N[C@@H](CCC(N)=O)C(=O)N[C@@H](CCC(=O)O)C(=O)N[C@@H](CCCCN)C(=O)N[C@@H](CCC(N)=O)C(=O)N[C@@H](CCCCN)C(=O)N[C@@H](CCCCN)C(=O)N[C@@H](CCC(N)=O)C(=O)N[C@@H](CCCNC(=N)N)C(=O)N[C@@H](CCC(=O)O)C(=O)N[C@@H](CCC(N)=O)C(=O)N[C@@H](C)C(=O)N[C@@H](CCC(=O)O)C(=O)N[C@H](C(=O)N[C@@H](CC(N)=O)C(=O)NC(C)(C)C(=O)N[C@@H](CCC(N)=O)C(=O)N[C@H](C(=O)N[C@@H](CC(C)C)C(=O)N[C@@H](C)C(=O)N[C@@H](CCC(N)=O)C(=O)N[C@H](C(N)=O)C(C)C)[C@@H](C)CC)[C@@H](C)O)[C@@H](C)CC)[C@@H](C)CC)C(C)C)C(C)C [Cmpd 219] (Pentanoyl-VLSLD[dV]PIKLK([γGlu-C20 diacid])KILLEQEKQKKQREQAETN[Aib]QILAQV-NH2)
> 50 µM,–,–,CC[C@H](C)[C@H](NC(C)=O)C(=O)N[C@H](C(=O)N[C@@H](CC(C)C)C(=O)N[C@@H](CO)C(=O)N[C@@H](CC(C)C)C(=O)N[C@@H](CC(=O)O)C(=O)N[C@@H](C(=O)N1CCC[C@H]1C(=O)N[C@H](C(=O)N[C@@H](CCCCN)C(=O)N[C@@H](CC(C)C)C(=O)N[C@@H](CCCCNC(=O)CC[C@H](NC(=O)CCCCCCCCCCCCCCC(=O)O)C(=O)O)C(=O)N[C@@H](CCCCN)C(=O)N[C@H](C(=O)N[C@@H](CC(C)C)C(=O)N[C@@H](CC(C)C)C(=O)N[C@@H](CCC(=O)O)C(=O)N[C@@H](CCC(N)=O)C(=O)N[C@@H](CCC(=O)O)C(=O)N[C@@H](CCCCN)C(=O)N[C@@H](CCC(N)=O)C(=O)N[C@@H](CCCCN)C(=O)N[C@@H](CCCCN)C(=O)N[C@@H](CCC(N)=O)C(=O)N[C@@H](C)C(=O)N[C@@H](CCC(=O)O)C(=O)N[C@@H](CCC(N)=O)C(=O)N[C@@H](C)C(=O)N[C@@H](CCC(=O)O)C(=O)N[C@H](C(=O)N[C@@H](CC(N)=O)C(=O)NC(C)(C)C(=O)N[C@@H](CCC(N)=O)C(=O)N[C@H](C(=O)N[C@@H](CC(C)C)C(=O)N[C@@H](C)C(=O)N[C@@H](CCC(N)=O)C(=O)N[C@H](C(N)=O)C(C)C)[C@@H](C)CC)[C@@H](C)O)[C@@H](C)CC)[C@@H](C)CC)C(C)C)C(C)C [Cmpd 167] (Ac-IVLSLD[dV]PIKLK([γGlu-C16 diacid])KILLEQEKQKKQAEQAETN[Aib]QILAQV-NH2)
50.4 µM,–,–,CC[C@H](C)[C@H](N)C(=O)N[C@H](C(=O)N[C@@H](CC(C)C)C(=O)N[C@@H](CO)C(=O)N[C@@H](CC(C)C)C(=O)N[C@@H](CC(=O)O)C(=O)N[C@H](C(=O)N1CCC[C@H]1C(=O)N[C@H](C(=O)N[C@@H](CCCCN)C(=O)N[C@@H](CC(C)C)C(=O)N[C@@H](CCCCNC(=O)COCCOCCNC(=O)COCCOCCNC(=O)CC[C@H](NC(=O)CCCCCCCCCCCCCCCCC(=O)O)C(=O)O)C(=O)N[C@@H](CCCCN)C(=O)N[C@H](C(=O)N[C@@H](CC(C)C)C(=O)N[C@@H](CC(C)C)C(=O)N[C@@H](CCC(=O)O)C(=O)N[C@@H](CCC(N)=O)C(=O)N[C@@H](CCC(=O)O)C(=O)N[C@@H](CCCCN)C(=O)N[C@@H](CCC(N)=O)C(=O)N[C@@H](CCCCN)C(=O)N[C@@H](CCCCN)C(=O)N[C@@H](CCC(N)=O)C(=O)N[C@@H](CCCNC(=N)N)C(=O)N[C@@H](CCC(=O)O)C(=O)N[C@@H](CCC(N)=O)C(=O)N[C@@H](C)C(=O)N[C@@H](CCC(=O)O)C(=O)N[C@H](C(=O)N[C@@H](CC(N)=O)C(=O)N[C@@H](CCCCN)C(=O)N[C@@H](CCC(N)=O)C(=O)N[C@H](C(=O)N[C@@H](CC(C)C)C(=O)N[C@@H](C)C(=O)N[C@@H](CCC(N)=O)C(=O)N[C@H](C(N)=O)C(C)C)[C@@H](C)CC)[C@@H](C)O)[C@@H](C)CC)[C@@H](C)CC)C(C)C)C(C)C [149 (comp)] (H-IVLSLDVPIKLK([AEEA-AEEA-γGlu-C18 diacid])KILLEQEKQKKQREQAETNKQILAQV-NH2)
–,203 nM,43 % I,[NMeI]VLSLD[dV]PIGLK([γGlu-C20 diacid])KILLEQEKQKKQREQAETN[Aib]QILAQV-NH2 (N-terminus assumed; SMILES CC[C@H](C)[C@H](NC)C(=O)N[C@H](C(=O)N[C@@H](CC(C)C)C(=O)N[C@@H](CO)C(=O)N[C@@H](CC(C)C)C(=O)N[C@@H](CC(=O)O)C(=O)N[C@@H](C(=O)N1CCC[C@H]1C(=O)N[C@H](C(=O)NCC(=O)N[C@@H](CC(C)C)C(=O)N[C@@H](CCCCNC(=O)CC[C@H](NC(=O)CCCCCCCCCCCCCCCCCCC(=O)O)C(=O)O)C(=O)N[C@@H](CCCCN)C(=O)N[C@H](C(=O)N[C@@H](CC(C)C)C(=O)N[C@@H](CC(C)C)C(=O)N[C@@H](CCC(=O)O)C(=O)N[C@@H](CCC(N)=O)C(=O)N[C@@H](CCC(=O)O)C(=O)N[C@@H](CCCCN)C(=O)N[C@@H](CCC(N)=O)C(=O)N[C@@H](CCCCN)C(=O)N[C@@H](CCCCN)C(=O)N[C@@H](CCC(N)=O)C(=O)N[C@@H](CCCNC(=N)N)C(=O)N[C@@H](CCC(=O)O)C(=O)N[C@@H](CCC(N)=O)C(=O)N[C@@H](C)C(=O)N[C@@H](CCC(=O)O)C(=O)N[C@H](C(=O)N[C@@H](CC(N)=O)C(=O)NC(C)(C)C(=O)N[C@@H](CCC(N)=O)C(=O)N[C@H](C(=O)N[C@@H](CC(C)C)C(=O)N[C@@H](C)C(=O)N[C@@H](CCC(N)=O)C(=O)N[C@H](C(N)=O)C(C)C)[C@@H](C)CC)[C@@H](C)O)[C@@H](C)CC)[C@@H](C)CC)C(C)C)C(C)C) [peptide of SEQ ID NO: 229]
–,> 250 nM,0 % I,[NMeI]VLSLD[dV]PIKLK([AEEA-AEEA-γGlu-C20 diacid])KILLEQEKQK[Aib]QREQAETN[Aib]QILAQV-NH2 (N-terminus assumed; SMILES CC[C@H](C)[C@H](NC)C(=O)N[C@H](C(=O)N[C@@H](CC(C)C)C(=O)N[C@@H](CO)C(=O)N[C@@H](CC(C)C)C(=O)N[C@@H](CC(=O)O)C(=O)N[C@@H](C(=O)N1CCC[C@H]1C(=O)N[C@H](C(=O)N[C@@H](CCCCN)C(=O)N[C@@H](CC(C)C)C(=O)N[C@@H](CCCCNC(=O)COCCOCCNC(=O)COCCOCCNC(=O)CC[C@H](NC(=O)CCCCCCCCCCCCCCCCCCC(=O)O)C(=O)O)C(=O)N[C@@H](CCCCN)C(=O)N[C@H](C(=O)N[C@@H](CC(C)C)C(=O)N[C@@H](CC(C)C)C(=O)N[C@@H](CCC(=O)O)C(=O)N[C@@H](CCC(N)=O)C(=O)N[C@@H](CCC(=O)O)C(=O)N[C@@H](CCCCN)C(=O)N[C@@H](CCC(N)=O)C(=O)N[C@@H](CCCCN)C(=O)NC(C)(C)C(=O)N[C@@H](CCC(N)=O)C(=O)N[C@@H](CCCNC(=N)N)C(=O)N[C@@H](CCC(=O)O)C(=O)N[C@@H](CCC(N)=O)C(=O)N[C@@H](C)C(=O)N[C@@H](CCC(=O)O)C(=O)N[C@H](C(=O)N[C@@H](CC(N)=O)C(=O)NC(C)(C)C(=O)N[C@@H](CCC(N)=O)C(=O)N[C@H](C(=O)N[C@@H](CC(C)C)C(=O)N[C@@H](C)C(=O)N[C@@H](CCC(N)=O)C(=O)N[C@H](C(N)=O)C(C)C)[C@@H](C)CC)[C@@H](C)O)[C@@H](C)CC)[C@@H](C)CC)C(C)C)C(C)C) [peptide of SEQ ID NO: 239]
